Results on one molecule are retold here after US20240425837A1 (Novo Nordisk, published 2024).

Holding throughout (assay): ELISA, biotinylated 12-mer peptide on streptavidin, 2 ug/mL FLAG-tagged VHH, anti-FLAG-HRP
Test [1] concerns the target T1, FX activation peptide 12-mer PYDAADLDPTEN (SEQ ID NO:712) (human).
T1 peptide: PYDAADLDPTEN-biotin
Here is the method:
(§1) To determine whether the binding epitope of the anti-FX VHH polypeptide designated “cmpd #1” are located inside the activation peptide (AP) of human FX (SEQ ID NO:2), an ELISA assay was setup. 41 unique 12-mer peptide fragments spanning the 52 residues of the activation peptide with one amino acid spacing were immobilized in microtiter plate wells followed by incubation with the VHH polypeptide to be tested, and detection of bound ligand was performed by addition of a secondary HRP-labelled antibody.
(§2) The peptides were C-terminally conjugated to biotin and 50 μL of 1 μg/mL peptide solution was used for immobilization in discrete wells of the microtiter plate which was pre-coated with 1 μg/mL streptavidin. Each well was washed with washing buffer (10 mM Tris, 150 mM NaCl, 2.5 mM CaCl₂, 0.05% Tween 20, pH 8.60) followed by addition of 50 μL of 2 μg/mL FLAG-tagged anti-FX VHH polypeptide or IgG antibody to be tested. After 1 hour non-bound VHH polypeptide was washed off using washing buffer.
(§3) Bound anti-FX activation peptide ligand was detected by first binding a HRP-labelled secondary antibody (for FLAG-tagged VHH polypeptide: Anti-FLAG mAb M2-Peroxidase (HRP) (Sigma Aldrich, US) for 1 hour, and then adding 100 μL TMB-1 ELISA substrate (Kem-En-Tec Diagnostics, Denmark).

The target in test [2] is T2, FX activation peptide 12-mer LDFNQTQPERGD (SEQ ID NO:728) (human).
T2 peptide: LDFNQTQPERGD-biotin
As for the experimental part: as §1, §2, §3

The target in test [3] is T3, FX activation peptide 12-mer ENPFDLLDFNQT (SEQ ID NO:722) (human).
T3 peptide: ENPFDLLDFNQT-biotin
As for the experimental part: as §1, §2, §3

Test [4] has as its target T4, FX activation peptide 12-mer WKPYDAADLDPT (SEQ ID NO:710) (human).
T4 peptide: WKPYDAADLDPT-biotin
As for the experimental part: as §1, §2, §3

Test [5] concerns the target T5, FX activation peptide 12-mer NQTQPERGDNNL (SEQ ID NO:731) (human).
T5 peptide: NQTQPERGDNNL-biotin
Here is the method: as §1, §2, §3

The target in test [6] is T6, FX activation peptide 12-mer DAADLDPTENPF (SEQ ID NO:714) (human).
T6 peptide: DAADLDPTENPF-biotin
As for the experimental part: as §1, §2, §3

For test [7], the target named is T7, FX activation peptide 12-mer PTENPFDLLDFN (SEQ ID NO:720) (human).
T7 peptide: PTENPFDLLDFN-biotin
Here is the method:
as §1, §2, §3

Test [8] has as its target T8, FX activation peptide 12-mer PFDLLDFNQTQP (SEQ ID NO:724) (human).
T8 peptide: PFDLLDFNQTQP-biotin
Here is the method:
as §1, §2, §3

The target in test [9] is T9, FX activation peptide 12-mer AADLDPTENPFD (SEQ ID NO:715) (human).
T9 peptide: AADLDPTENPFD-biotin
As for the experimental part: as §1, §2, §3

In test [10] the target is T10, FX activation peptide 12-mer TSSSGEAPDSIT (SEQ ID NO:698) (human).
T10 peptide: TSSSGEAPDSIT-biotin
As for the experimental part:
as §1, §2, §3

Test [11] concerns the target T11, FX activation peptide 12-mer ITWKPYDAADLD (SEQ ID NO:708) (human).
T11 peptide: ITWKPYDAADLD-biotin
As for the experimental part: as §1, §2, §3

The target in test [12] is T12, FX activation peptide 12-mer TWKPYDAADLDP (SEQ ID NO:709) (human).
T12 peptide: TWKPYDAADLDP-biotin
As for the experimental part:
as §1, §2, §3

For test [13], the target named is T13, FX activation peptide 12-mer DSITWKPYDAAD (SEQ ID NO:706) (human).
T13 peptide: DSITWKPYDAAD-biotin
As for the experimental part:
as §1, §2, §3

Test [14] has as its target T14, FX activation peptide 12-mer LDPTENPFDLLD (SEQ ID NO:718) (human).
T14 peptide: LDPTENPFDLLD-biotin
As for the experimental part:
as §1, §2, §3

The target in test [15] is T15, FX activation peptide 12-mer FNQTQPERGDNN (SEQ ID NO:730) (human).
T15 peptide: FNQTQPERGDNN-biotin
As for the experimental part:
as §1, §2, §3

For test [16], the target named is T16, FX activation peptide 12-mer EAPDSITWKPYD (SEQ ID NO:703) (human).
T16 peptide: EAPDSITWKPYD-biotin
Here is the method: as §1, §2, §3

For test [17], the target named is T17, FX activation peptide 12-mer DFNQTQPERGDN (SEQ ID NO:729) (human).
T17 peptide: DFNQTQPERGDN-biotin
As for the experimental part: as §1, §2, §3

The target of test [18] is T18, FX activation peptide 12-mer TENPFDLLDFNQ (SEQ ID NO:721) (human).
T18 peptide: TENPFDLLDFNQ-biotin
Here is the method: as §1, §2, §3

No end group written: not given here.

B1: Cmpd #1 (monovalent anti-FX VHH polypeptide, VHH-1.1) (VHH)
VHH: EVQLVESGGGLVQPGGSLRLSCAASGSIGAFDAMGWYRQAPGKQRELVAGIMVSRGNTNYTDSVKGRFTISRDNAKNTVYLQMNSLKPEDTAVYYCKAVKRPGPGYLEVWGQGTLVTVSS
notes: no protractor; FLAG-tagged in the peptide ELISA
As for B1, the “ELISA signal normalized relative to the background signal” value is 0.83 fold of background in test [1]; 0.97 fold of background in test [2]; 4 fold of background in [3]; 0.89 fold of background in test [4]; 0.92 fold of background in test [5]; 0.88 fold of background in test [6]. The “ELISA signal normalized relative to the background signal” value was 4.58 fold of background in [7]; 4.95 fold of background in test [8]; 0.88 fold of background in test [9]; 0.77 fold of background in test [10]; 1.1 fold of background in [11]; 1.13 fold of background in test [12]. Further, the “ELISA signal normalized relative to the background signal” value is 1.08 fold of background in test [13]; 1.11 fold of background in test [14]; 1 fold of background in test [15]; 0.97 fold of background in test [16]; 0.94 fold of background in test [17]; 4.84 fold of background in test [18].
